Laboratory results published in US7560248 (WISCONSIN ALUMNI RESEARCH FOUNDATION, dated 2009).

B2: ribonuclease A (enzyme, UniProt P61823 27-150, looked up)
chain: KETAAAKFERQHMDSSTSAASSSNYCNQMMKSRNLTKDRCKPVNTFVHESLADVQAVCSQKNVACKNGQTNCYQSYSTMSITDCRETGSSKYPNCAYKTTQANKHIIVACEGNPYVPVHFDASV
notes: also called RNASE A; RNase A

Experiments:
[1] = biological target: B2; assay: affinity chromatography on RNase A-Sepharose 4B resin
[2] = biological target: T1, wild-type human ribonuclease inhibitor (human, UniProt P13489 2-461, limits assumed); assay: as above
T1 construct: Made in E. coli from plasmid pET-RI; also called hRI; wild-type hRI
T1 sequence: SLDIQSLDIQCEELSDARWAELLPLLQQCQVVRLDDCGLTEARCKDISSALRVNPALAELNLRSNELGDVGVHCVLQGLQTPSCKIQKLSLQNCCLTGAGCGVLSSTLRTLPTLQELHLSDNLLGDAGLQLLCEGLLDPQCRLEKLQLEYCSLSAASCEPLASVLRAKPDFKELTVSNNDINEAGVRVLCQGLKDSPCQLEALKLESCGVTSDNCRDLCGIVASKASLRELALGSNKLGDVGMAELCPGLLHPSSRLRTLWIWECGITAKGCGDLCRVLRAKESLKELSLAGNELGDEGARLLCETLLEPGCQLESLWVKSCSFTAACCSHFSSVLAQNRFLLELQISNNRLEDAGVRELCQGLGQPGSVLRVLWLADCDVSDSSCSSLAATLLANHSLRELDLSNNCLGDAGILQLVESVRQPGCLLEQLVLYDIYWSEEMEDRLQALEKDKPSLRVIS

[3] = biological target: T2, C95A/C96A human ribonuclease inhibitor (human, UniProt P13489 2-461, limits assumed); assay: as above
T2 construct: also called C95A/C96A hRI
T2 sequence: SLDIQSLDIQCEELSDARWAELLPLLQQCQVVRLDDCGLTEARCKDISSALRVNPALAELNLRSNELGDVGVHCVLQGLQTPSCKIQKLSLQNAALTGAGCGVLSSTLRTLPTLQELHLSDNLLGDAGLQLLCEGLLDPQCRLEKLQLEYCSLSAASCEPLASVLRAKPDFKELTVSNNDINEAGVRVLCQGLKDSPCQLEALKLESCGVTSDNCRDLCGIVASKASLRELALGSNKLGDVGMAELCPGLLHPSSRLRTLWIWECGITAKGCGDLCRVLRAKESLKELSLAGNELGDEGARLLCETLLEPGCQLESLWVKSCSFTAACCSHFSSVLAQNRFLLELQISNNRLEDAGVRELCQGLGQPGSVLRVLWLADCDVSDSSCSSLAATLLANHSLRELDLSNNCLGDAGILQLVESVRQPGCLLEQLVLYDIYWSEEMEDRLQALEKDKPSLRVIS

[4] = biological target: T3, C329A/C330A human ribonuclease inhibitor (human, UniProt P13489 2-461, limits assumed); assay: as above
T3 construct: also called C329A/C330A hRI
T3 sequence: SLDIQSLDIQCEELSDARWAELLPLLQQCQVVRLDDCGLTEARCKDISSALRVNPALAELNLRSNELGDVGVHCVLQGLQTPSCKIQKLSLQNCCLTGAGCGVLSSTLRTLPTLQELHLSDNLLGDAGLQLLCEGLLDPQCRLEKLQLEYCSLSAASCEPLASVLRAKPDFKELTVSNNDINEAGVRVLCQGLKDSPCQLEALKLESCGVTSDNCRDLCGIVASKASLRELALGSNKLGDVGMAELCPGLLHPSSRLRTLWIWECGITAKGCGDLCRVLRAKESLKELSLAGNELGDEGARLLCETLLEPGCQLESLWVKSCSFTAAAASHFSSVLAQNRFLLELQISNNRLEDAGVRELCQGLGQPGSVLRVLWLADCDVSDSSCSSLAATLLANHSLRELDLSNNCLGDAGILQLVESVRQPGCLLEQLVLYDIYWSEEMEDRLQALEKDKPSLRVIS

[5] = biological target: T4, C329A human ribonuclease inhibitor (human, UniProt P13489 2-461, limits assumed); assay: inhibition of RNase A activity, poly(C) cleavage assay
T4 construct: also called C329A hRI
T4 sequence: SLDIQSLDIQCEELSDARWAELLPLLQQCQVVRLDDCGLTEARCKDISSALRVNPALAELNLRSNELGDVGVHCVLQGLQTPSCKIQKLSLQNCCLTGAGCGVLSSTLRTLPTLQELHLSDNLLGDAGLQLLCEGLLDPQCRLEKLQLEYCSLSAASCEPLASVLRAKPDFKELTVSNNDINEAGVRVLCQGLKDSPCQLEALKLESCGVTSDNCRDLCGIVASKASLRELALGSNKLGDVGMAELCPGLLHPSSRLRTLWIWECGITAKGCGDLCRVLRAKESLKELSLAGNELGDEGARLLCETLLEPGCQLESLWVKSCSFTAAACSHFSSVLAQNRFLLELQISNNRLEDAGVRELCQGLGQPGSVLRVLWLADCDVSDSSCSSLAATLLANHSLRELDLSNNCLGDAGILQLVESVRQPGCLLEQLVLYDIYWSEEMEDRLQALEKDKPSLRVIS
Procedure: (§1) A solution (101) of 20 mM HEPES-HCl buffer, pH 7.6, containing KCl (50 mM) and RNASE A (80 nM) was added to each of the hRI solutions. The resulting mixtures were incubated at 37° C. for 5 min. The ribonucleolytic activity in each mixture was then assessed by using a spectrophotometric assay for poly(C) cleavage, as described (delCardayre et al., 1995), with [poly(C)]=37 μM. This experiment was performed at least twice with wild-type hRI and each variant.

[6] = biological target: T5, C330A human ribonuclease inhibitor (human, UniProt P13489 2-461, limits assumed); assay: as above
T5 construct: also called C330A hRI
T5 sequence: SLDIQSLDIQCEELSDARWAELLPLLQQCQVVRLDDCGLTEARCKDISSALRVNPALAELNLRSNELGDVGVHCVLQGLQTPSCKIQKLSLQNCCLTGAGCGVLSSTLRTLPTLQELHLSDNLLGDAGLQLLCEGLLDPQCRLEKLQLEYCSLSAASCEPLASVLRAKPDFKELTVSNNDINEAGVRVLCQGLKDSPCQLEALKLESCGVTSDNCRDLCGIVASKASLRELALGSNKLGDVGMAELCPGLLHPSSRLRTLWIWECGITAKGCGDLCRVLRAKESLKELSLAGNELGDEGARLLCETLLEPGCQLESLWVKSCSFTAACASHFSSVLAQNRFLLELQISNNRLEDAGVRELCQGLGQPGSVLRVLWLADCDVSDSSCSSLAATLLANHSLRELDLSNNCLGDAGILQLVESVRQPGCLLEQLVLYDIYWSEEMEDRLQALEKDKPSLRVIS
Procedure: as §1

Measured: binding result

B1: C95A/C96A/C329A/C330A human ribonuclease inhibitor (other)
chain: SLDIQSLDIQCEELSDARWAELLPLLQQCQVVRLDDCGLTEARCKDISSALRVNPALAELNLRSNELGDVGVHCVLQGLQTPSCKIQKLSLQNAALTGAGCGVLSSTLRTLPTLQELHLSDNLLGDAGLQLLCEGLLDPQCRLEKLQLEYCSLSAASCEPLASVLRAKPDFKELTVSNNDINEAGVRVLCQGLKDSPCQLEALKLESCGVTSDNCRDLCGIVASKASLRELALGSNKLGDVGMAELCPGLLHPSSRLRTLWIWECGITAKGCGDLCRVLRAKESLKELSLAGNELGDEGARLLCETLLEPGCQLESLWVKSCSFTAAAASHFSSVLAQNRFLLELQISNNRLEDAGVRELCQGLGQPGSVLRVLWLADCDVSDSSCSSLAATLLANHSLRELDLSNNCLGDAGILQLVESVRQPGCLLEQLVLYDIYWSEEMEDRLQALEKDKPSLRVIS
notes: Variant with all four substitutions; also called C95A/C96A/C329A/C330A hRI
binds: [1]

B2
not listed: [1]
binds: all other assays above
